This note sets out measurements from paper PMC5496667.

The experiment has as its target GFP-tagged Tubulin (fusion construct of Tubulin and GFP). As to the kind of experiment: FRET or BRET. Background: In BRET a luciferase serves as donor, and the signal depends on an acceptor being close.

B1: DsRed-tagged Ccdc181 (FACS-FRET construct) (natural protein)
chain: MDEDKDIDSKESGEYEDDFEKDLEWLINDKEKSNGSTIEMACKKEDDLDQVLKENETETELGQQLSDPDNSPKDEALPRRNDFISVPSIQPLDPISDSDSENSFQDSKPENQKDLEDEEDEEVRRYIMEKIIEANKLLQTQEPVNDKRERKLKFKDKLVDLEVPPLEDSDTCKALLENETNMSGKLSQLCISGDLEQESVLVSVTDGSCEENDRKILVERDGKFELMNLQDIESQGFLPPISSANSVEHESSQLPLRAPNPSVGGIKKEESEAKGHVLPISPAGEPLAQVPQLLPNPKNRPSSAANPDVTKKARRSNHRIQSAGVSPVTSTYCLSPRQKELQKQLERKREKLKREEEQRKLEEENEKKKENEMVFKAWLQKKREQVIEMRRVQRAKQIEDMSSRQVNRDPQQAFRLWLKKKHEEQMKERKTEELRKQEECLFFLRGTEGRERAFRQWLRRKQIEKIAEQQAVKERARQLRLEARRSKQLQSSLYSIPEAKAFRFTDHYN
B1 showed a percent FRET positive cells of 29.4%.
